In a protein production outcome set (Wang et al. 2014):

assay: label from the status in PepcDB records

Sequence	protein production
MMIKIIREMPHGVAALCLIQAFSTFSYAVQYSSLALFITKQLGIANLSANSIVGLFLSFSYIFQLIGGVIGSRFISNRLLFVTTILIQNMGLFFLAQANPSLLNIGLSLFMVGSGLNVTSSNSMLTQCFIPQDDRRESAFFLSYAGMNVGYCIGYIACGFFDYSNQYQYLLYASILTNSIALLIIIKNWAYLGDKNFPLPNLTKRNWYFIKNILAIAFITFLIPFMRVCFEFANFCNGLVIITCLFMFLIIFILGLKQKSSSDRKKMMAYLILAISSVLFWMIYLTGPMGVTLFVKNNVDKHLFSFELATQWIKNINPVVIIFGAPIMSMLINKLKAKGFHVSAPVQFSCSFVFLALSFLCLIFGIICSNSYGYISIYWIIGHHILQGMSELLLGPVGYALIGRIAPPKLQGILMGTWMLVIGVAASFSQYFSNAMVQSESVDPLITNQDFLTAFKQLGLWSLLCAALLYFVSGKLTRIINGTKDNKSVNESKALPMPYSN	failed
MMIMNNFDEKKLIQEFSKIQSELSPRIKLENNFQIEEIQFIAGVDLAYWNVNKTKYGTCCIVIIDYGTKEVVEKVYSYGEIPIPYIPGFLAFRELPLIIEAVKKLTKQPDIYFFDGNGYLHYRHMGIATHASFLLNKPTIGVAKSYLKIRDVDFIMPENLKGSYTDIVINNEVYGRTLRTTKNVKPIFVSCGNWIDLDTSTEIVMNCINNESRLPIPVRLADLETHKMRKKLMEGLEHHHHHH	failed
MMKNKVNIDTIIYLVLIITSLIFIYAGSFLFEEGSFIGNRGNNRTVDADTATDRNKPFPVVHKAVSTEINGIKQKINILEIDLSSGGVKIKPALAFDTIYGFQSLKDIAINNNAYAAVNAGFFYSYGEPSGMVVIDGKVYTKSTGKYPVFVVQGKNAFLSEIKSNIWILHGNRRIAADDINREGKPGETVVYTPVFGPTNRADKLHTSYIVENNRVARKFRGDTECKIPSDGMVITFYEPISSEEKFEVGDWIGIDIDPDFGPGFQAYECGSWLVRDGQVVAVDRDDWVGLLTNRDPRTAIGVKHDGKVVLVTVDGRQPGYSVGLSSRELAGYLLTLGIKDAAMLDGGASTQMIVQNKTVNRLPARERMLGGGIVVVVDEDL	failed
MMKRVAVTGAAGRVGTLLRPLLRSHFEHLSLIDLQEPDELGENENFVRADFTKLDEATAALKDIDGVIHLAGIASGTDMNAILHANVLGTYNLYEAARINKVQRVVYASSNHATGFYPRGQLVSPLDPMRPDSPYGLSKCWGELVAGLYYDTSGIRSLSIRIGNAGTYPNSERSIAIWISARDLAQLVRIGLSHPLIAATVVYGVSDTEEKWWENDLATRLGYQPQDRPRDHALIEEGSEGPVALAFQGGGFCEINHDGTIRMRDADGLAKSPETVE	failed
MMKSLGSIRRSFAPWADPASKPFISVKNVTKKFGDFTAVDDLSLNIYTREFFALLGASGCGKSTLLRMLAGFEQPTSGEIILDGQSLAGIPPYRRPVNMMFQSYALFPHMTVENNVAFGLKQDGMPKADIAERVAQMLKLVKLEKFAKRKPHQLSGGQRQRVALARSLAKRPKVLLLDEPLGALDKKLREETQFELMDLQQELGLTFVVVTHDQEEAMTMADRIAVMSHGKVVQVATPAEIYEAPNSRFVADFIGDVNIFDGKVTSAEDGYIRVETTGGIPVRMASPEKPGNGAKAAVAIRPEKIRIGRQPPAHAPVNAAEGEIWDIGYLGDMTVFHIRLKDGKVVKASSLNAVRAVEDPLGYDQQVWISFGDDAGVVLKD	failed
MMMGRIKPTDGTAGNPEFNAELVAEKIEAITSPPPAPDTSEPDAAASQPAAPQTAAPPAQTVAQPAPVTPPIVSEPPAPQQAAAAPQPAVDESALRYFASRGDKVRLQAEISRLQALYPNWVPPADPLAVPQNGDKQLEAMWQLYSDGRYAELRKAVADRQAADAGWQPPADLLDRLDVAEGRARLVNASDLKQYATVVDIAAATPSLLTCSEIDVLWRVAEAFIQTERAQRGQDAYTYILKNCTNPAERQATVEKASTLLAYQPMQALLALERPAADGSKEFDAIRDNLARRFMAEGDDEPNLAIAPDYIARLEKLAETQGLASDALLLGWYQLRRNNDADAEKWFRAARAKQDSAAASQGLALALIARKAPEEAEDVMFRWRADSDDATSTYLAATANLMALQPPADLAEDVLHRIAGEVIARKYVPTAQQFGWYARSLNQFQTAARWFETALAWKPDDEPSAYGLVITREQLSDRKGVLDLQRAWAGRSSRITNLEDTSSLMPNAVTPPPAKGTLAAQQPAQPTQHPPAEPLPAERRVILQPGSEVVVRAARPSMETVNVPRGPRQTRGCSTTIDAGQLKPADALSRGWCLMDINRPMEAISAFESALQSPSRKVREDAAYGQSLAYLRAGLSGNAAVAATKAPQNRQRAAELQVAILADRALSAFDAGRYRETLIYLDQRAQLQQERIDLMVLRGYCYLNLKMYGDATRIFEAAAATGSRDAARGLADVRNVTHPDVND	failed
MMMHPMNKTNKRDKMEKRNNPSALNIFMSFLKLGMVAFGGPTAIAYVREMVVDEKKWMDEKSFNNGVALAQIIPGASVMQVAAYVGFYLRGIVGAFAAFMAYALPAFLIMLFLTIIYMHVKSLPKTVSIFEALRIIVVSLAANGTLNFSKKNIRTIGDVFLLLISALLFILKFSPFIVIFVSIFIGFLMYRRDITKLSLKIDIPREKLRIYKYVAYLLFGVFLFNLILYMIDSKLFLLSTLMMKVDVFAFGGGYGSVPFMLHEVVDKYNLMDAKTFMDGIALGQITPGPIVITATFVGYIVGGFIGSIISTISVFTPSFIILLSSIPIFDSLKHNTIFKNILHMILVSFVGLLVAVTIRFALLVDWSIQALIIFIVSFLLLYKKYNMLLVVLLSLVLGYLIL	failed
MMMYKEPFGVKVDFETGIIEGAKKSVRRLSDMEGYFVDERAWKELVEKEDPVVYEVYAVEQEEKEGDLNFSTHVIYPGKVGKEFFFAKGHFHAKLDRAQVAVALKGKGGVLMQTPEGDAKWISSEPGTVIYSPPYWAARAVNIGDEPFIMLVIYPADAGHDYGTIAEKGFSKIVIEENGEVKVVDNPRWKKGSLEHHHHHH	not failed
MMNDRFTRIKWLVGEEKFQKISQTKVLVCGLGGVGGICVDALYRSGFKNLTLIDADKFEITNQNRQIHSENIGEEKAKVFERIYKVKGIVSKIDENFLKNFDLSEFDLIIDAIDDIPAKVALAHLIDFKKQIFISSTGGARKLDPTRIKTTSIFKTHGDALAKKFRYELRKSGFKGNFDVVFSDEEAHCKDLGSFMGVTASFGLALASLALRKVLAKKS	failed
MMNEPQVSFITVCYNGFKDTCELIESLQTHVHSVSYEIIVVDNASREDEATKIKELYSDIVTLRSESNLGFSGGNNLGIRVAKGAYIFLINNDTYVESDGFHYLTERLESQKNIGAVSPKIRFAFPPQNIQFAGFTSLSAITIRNEMTGFGCPDDGTFDTPHTTPYLHGAALMVKREVIEKVGEMPEIFFLYYEEMDWCTQMTNAGYELWYEPRCTVFHKESQSTGQFSKLRTFYMTRNRLLYTRRNRKGAQRLLSILYQSTIAAGKNSLQFAVKGRFDLFAAVWKGVVRSFSVTSPIRLEHHHHHH	failed
MMNTPESRLVAAGLELPEVAAALGNYEPYSIVGSQLMTSGQFPYLQGKLLYQGQLGADYTVSEGYAACRLATLNAIAQLKQACGELSRIKQIYRLEGVLNVHQSCIEHPKALDGASDLLLEIFGEAGRHSRMIWTNPVMPLNSLCLVYLFAEL	not failed
MMNYRKADMKDISLLVSIRKRQLIDEGIEPNIDIDKELTRYFNNKLANNLLVEWIAEENNQIIATAAIAFIDFPPTYTNKTGRKGYITNMYTEPTSRGNGIATGMLDRLVNEAKERNIHKICLVASKLGRPVYKKYGFQDTDEWLELNLLEHHHHHH	failed
MMPSVHRRSRPWDPEATPRIPEMALQPAAGARDLNPRQVESNRALSERLASVFRLWGYDEVSPPRVERLDTLMAGGAIASEDVVRLVADEPLGLRPEMTASIARAACTRLASRPRPLRLWASGTVFQSRAADEGGQCIEENLQCGVELFGVAPIEAEMELLSLLMAAVERLDFQAQHQPRLLMGHTGLMDLLLSPVPPVLRDAVRAALIQYDRLGLETIELEEGLRATLLSLLDCRGTPNEVLERLSSCFGAQALFDDLHRLCRQLQGPAAAQGVRLQLDPTFQPRFELYTGLVFQLVCDTHSAPVVVARGGRYDDLVRRCGAQPGQDFGAGFSLAIDPIRELLSDSSSNPTVAPQLMVAFSERSTLEAALERQRWWHQQGRSAVIELHPFSTRSLAEQQATDQGGFQLDWIDP	failed
MMQDISIFLAFGAGFLSFISPCCLPLYPAFLSYITGMSVSELKEENAMLRKRSMIHTAFFLLGFSIIFIAIGFGTSFIGGIFTDYKDLIRQLGGIFIIVFGLIIVGVFKPKFLMQDRKFTFKNRPSGYFGSVLIGLAFAAGWTPCTGPILVSVIGLAATNPESAMIYMIAYILGFAIPFFVLSFFITKMSWIKRNSMAFMKVGGYIMIVMGVFLYFNWMTKIIVYFSSLFGGFTGF	failed
MMQPLQLSAGGFAVVLGTNEIASAVAVHLHREGCCVVMSHDPFPPVIRRKMAFHDALYGDEVTVEGVRGERVDHATQIFKALRRSDNVLVSWLALPDLLPIGAVDVLIDARMQKHRVTPDLRGLARISVGLGPGFSTAVNCDVAIETRPGRSGLIVGAGWTDAADGVASPLGGVGAERFEYSQASGRWRTAVEIGSRVFSGFTIGHLGGVPVRAPCDGILRGVVRDGQDVPQGVKLLEVDSRGRHAQWTGIDDRGRGIAKAVLRAVQPQAEIRTSYAAQPIAVFLEHHHHHH	not failed
MMRFSNKFKKVPYLLQALLNVCLSFLALALSALLISETWYIVLFVYKSLFNKVDSYYEMLGELLIFFMYFEFIALIIKYFKSDFHFPLRYFIYIGITAVIRLIIIDHDQAISTFWWAMAILAMICGFFIANRRNSVVEH	failed
MMRKLLTALPDGGVSALSGLQDAQTVGRISVAPSGRKFLLLTIVLFLITFATHAQVVDTWRFDNPQQQEKALSIAGQLRCPQCQNQNLLESNAPVAVSMRHQVYSMVAEGKSEAEITAWMTDRYGDFVRYNPPLNEQTLLLWALPCLLLLLVGVVVWRVRKRQHAEEGEQ	failed
MMRLRGIPQVFRFLLLLVLAGLAGCASKAPAPEKVAPVYQPEQSKEWERQGRQAYEAGDRKMALEAWHQAVAADPANVRVRNNLALLLKEQERFEEAAEMLEAGLKVTPKVAELHYNLAVISELYLLDLDKALEHYQHYQSLVGEEGSQVAGWIADLERRLE	failed
MMSNALRRFDPAWFEKYDGIIKHERLGTHVGKPNSSHNYAIEKCVNLMNQGQSIVHALFKQDDVMKREYHIPLNTSIDASRYLLRQGIAFHGHDESEESANKGNFLELVKYTGEQNDATEQMAVVFRFVDKSGTVKERFIEVVHVKETSSASVKSAIDDLFAKYGLSLKTVRGQGYDGASIMKVAKGVAKSFDLLSLLLKIIVVYK	failed
MMSSSTTTLVDAVASPQAQQAVYIGLVNPKTPTNVGGIMRASGCYGVDAVFYTGKRYEYAARGPQQYNADTQSAAERIPLTGVTSLLDAIPAGTQLVCVDLVLGATPLPEFVHPERAFYVFGPEDGTIGQEIIDRADAVVYVPTVGCMNLAASVNVLLYDRLAKTYRKQATNEAEFDGDALIRTSRDNNNRTRVKTTKRESSK	failed
MMSTHYIAGQWLAGQGETLESLDPVGQGVVWSGRGADATQVDAAVCAAREAFPAWARRPLEQRIELLERFAATLKSRADELARVIGEETGKPLWESATEVTSMVNKVAISVQAFRERTGEKSGPLADATAVLRHKPHGVVAVFGPYNFPGHLPNGHIVPALLAGNCVVFKPSELTPKVAELTLKAWIQAGLPAGVLNLVQGGRETGVALAAHRGLDGLFFTGSSRTGNLLHSQFGGQPQKILALEMGGNNPLVVEEVADLDAAVYTIIQSAFISAGQRCTCARRLLVPQGAWGDALLARLVAVSATLRVGRFDEQPAPFMGAVISLSAAEHLLKAQEHLIGKGAQPLLAMTQPIDGAALLTPGILDVSAVAERPDEEFFGPLLQVIRYSDFAAAIREANATQYGLAAGLLSDSRERFEQFLVESRAGIVNWNKQLTGAASSAPFGGIGASGNHRPSAYYAADYCAYPVASLESPSVSLPATLTPGIS	not failed
